Test results reported in publication PMC9357085, “Three pairs of surrogate redox partners comparison for Class I cytochrome P450 enzyme activity reconstitution” (Communications Biology, 2022).
Substitutions are numbered along the chain they refer to. Blank lines part the entries; values can stand above or below the molecule they belong to.

Columns and labels:
[1] = target: T1, P450sca-2 (CYP105A3) (Streptomyces carbophilus, UniProt Q59831); experiment: HPLC/HRMS of products, reconstituted system; type: biochemical; conditions: SelFdx1499/SelFdR0978 as redox partners (1:10:5), NADP+ with regeneration, pH 7.4, 30 °C, 2 h
T1 construct: His-tagged, expressed in E. coli, Ni-NTA purified
T1 sequence (Q59831 2-410): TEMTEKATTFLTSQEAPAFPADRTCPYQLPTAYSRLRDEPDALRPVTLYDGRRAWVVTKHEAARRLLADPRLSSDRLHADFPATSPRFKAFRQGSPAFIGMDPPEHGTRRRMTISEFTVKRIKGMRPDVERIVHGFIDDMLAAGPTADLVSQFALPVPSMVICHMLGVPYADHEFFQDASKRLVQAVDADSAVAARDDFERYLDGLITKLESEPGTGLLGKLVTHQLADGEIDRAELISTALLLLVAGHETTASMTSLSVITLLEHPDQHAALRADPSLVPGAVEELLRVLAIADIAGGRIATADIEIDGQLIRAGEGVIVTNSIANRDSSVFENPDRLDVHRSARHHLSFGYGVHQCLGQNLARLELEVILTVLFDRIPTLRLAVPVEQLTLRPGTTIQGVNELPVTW

[2] = target: T2, AdR (adrenodoxin reductase) (Bos taurus, UniProt P08165); experiment: DCIP reduction, absorbance at […] nm; type: biochemical; conditions: 30 °C
T2 construct: gene FDXR; C-terminal His-tag, expressed in E. coli; template plasmid pBAR-bAdR
T2 sequence (P08165 33-492): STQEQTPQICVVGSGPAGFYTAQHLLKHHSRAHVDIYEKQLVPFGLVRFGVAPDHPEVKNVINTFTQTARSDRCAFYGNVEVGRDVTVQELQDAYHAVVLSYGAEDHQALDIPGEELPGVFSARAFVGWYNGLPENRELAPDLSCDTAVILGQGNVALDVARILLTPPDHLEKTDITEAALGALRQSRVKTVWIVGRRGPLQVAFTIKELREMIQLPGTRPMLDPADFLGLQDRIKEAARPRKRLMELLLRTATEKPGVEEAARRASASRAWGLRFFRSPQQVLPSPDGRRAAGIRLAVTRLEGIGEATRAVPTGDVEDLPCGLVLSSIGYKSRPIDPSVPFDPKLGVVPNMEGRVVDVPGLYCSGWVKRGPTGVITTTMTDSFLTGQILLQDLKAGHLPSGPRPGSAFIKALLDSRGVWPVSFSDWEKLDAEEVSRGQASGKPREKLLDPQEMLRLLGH

[3] = target: T3, SelFdR0978 (Synechococcus elongatus, UniProt Q31PL1); experiment: DCIP reduction, absorbance at […] nm; type: biochemical; conditions: 30 °C
T3 construct: gene Synpcc7942_0978
T3 sequence (Q31PL1 1-403): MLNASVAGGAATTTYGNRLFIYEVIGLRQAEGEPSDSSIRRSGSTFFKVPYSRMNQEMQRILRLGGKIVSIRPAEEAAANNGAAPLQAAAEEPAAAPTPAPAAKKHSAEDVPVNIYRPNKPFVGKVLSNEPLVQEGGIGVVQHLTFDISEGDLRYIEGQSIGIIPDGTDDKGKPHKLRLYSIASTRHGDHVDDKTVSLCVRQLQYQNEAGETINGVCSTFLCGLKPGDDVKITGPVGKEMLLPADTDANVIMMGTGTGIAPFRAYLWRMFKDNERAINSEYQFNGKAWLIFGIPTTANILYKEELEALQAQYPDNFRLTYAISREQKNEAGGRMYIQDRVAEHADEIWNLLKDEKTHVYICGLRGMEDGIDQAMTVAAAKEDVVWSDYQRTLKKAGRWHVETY

[4] = target: T4, PdR (putidaredoxin reductase) (Pseudomonas putida, UniProt P16640); experiment: DCIP reduction, absorbance at […] nm; type: biochemical; conditions: 30 °C
T4 construct: gene camA; His-tagged, expressed in E. coli, Ni-NTA purified
T4 sequence (P16640 1-422): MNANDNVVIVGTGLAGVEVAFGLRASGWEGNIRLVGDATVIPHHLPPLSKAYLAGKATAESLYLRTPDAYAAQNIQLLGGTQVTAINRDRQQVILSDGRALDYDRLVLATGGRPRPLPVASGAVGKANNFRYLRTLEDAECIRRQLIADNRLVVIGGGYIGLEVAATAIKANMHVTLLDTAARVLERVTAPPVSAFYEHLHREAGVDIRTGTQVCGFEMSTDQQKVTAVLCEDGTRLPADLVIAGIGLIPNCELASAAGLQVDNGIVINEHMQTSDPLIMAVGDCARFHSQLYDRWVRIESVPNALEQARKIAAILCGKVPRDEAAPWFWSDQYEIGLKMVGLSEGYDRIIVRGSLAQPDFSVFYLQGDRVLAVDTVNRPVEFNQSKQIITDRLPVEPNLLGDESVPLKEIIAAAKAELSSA

[5] = target: T3, SelFdR0978; experiment: FAD released by guanidinium chloride, absorbance at […] nm; type: binding; conditions: FAD-bound flavoprotein as purified
[6] = target: T5, EpoK (CYP167A1) (Sorangium cellulosum, UniProt Q9KIZ4); experiment: conversion assay, reconstituted system; type: biochemical; conditions: SelFdx1499/SelFdR0978 as redox partners
T5 construct: His-tagged, expressed in E. coli (general P450 statement)
T5 sequence (Q9KIZ4 whole entry): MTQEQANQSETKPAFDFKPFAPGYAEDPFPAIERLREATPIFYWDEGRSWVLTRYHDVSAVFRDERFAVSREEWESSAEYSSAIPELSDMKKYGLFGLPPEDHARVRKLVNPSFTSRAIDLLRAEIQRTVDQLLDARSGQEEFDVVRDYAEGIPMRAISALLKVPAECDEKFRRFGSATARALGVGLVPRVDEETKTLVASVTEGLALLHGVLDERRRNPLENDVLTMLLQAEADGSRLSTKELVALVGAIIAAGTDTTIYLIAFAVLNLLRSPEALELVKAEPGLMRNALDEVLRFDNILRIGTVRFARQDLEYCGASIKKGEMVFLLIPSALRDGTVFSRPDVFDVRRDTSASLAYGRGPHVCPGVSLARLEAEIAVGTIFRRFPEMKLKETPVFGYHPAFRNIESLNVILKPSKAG

[7] = target: T6, Bovine adrenodoxin reductase (bovine) (UniProt P08165)
T6 sequence: T2 sequence (P08165 33-492)

[8] = target: plastidic-type ferredoxin reductase SelFdR0978 from Synechococcus elongatus PCC 7942 (Synechococcus elongatus PCC 7942)
[9] = target: T6, Bovine adrenodoxin reductase (bovine); remark: listed apart in the source
[10] = target: T7, putidaredoxin reductase from Pseudomonas putida (Pseudomonas putida) (UniProt P16640)
T7 sequence: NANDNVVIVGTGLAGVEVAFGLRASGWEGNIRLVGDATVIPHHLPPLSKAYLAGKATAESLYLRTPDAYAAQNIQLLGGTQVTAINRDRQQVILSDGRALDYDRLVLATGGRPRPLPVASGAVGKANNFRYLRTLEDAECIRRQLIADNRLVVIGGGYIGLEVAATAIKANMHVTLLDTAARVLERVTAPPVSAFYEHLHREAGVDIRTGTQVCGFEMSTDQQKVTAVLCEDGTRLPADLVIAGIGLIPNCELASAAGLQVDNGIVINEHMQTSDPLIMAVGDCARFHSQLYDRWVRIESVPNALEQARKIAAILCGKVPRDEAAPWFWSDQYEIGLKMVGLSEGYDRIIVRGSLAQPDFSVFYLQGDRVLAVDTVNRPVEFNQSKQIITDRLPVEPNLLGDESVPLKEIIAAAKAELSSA

[11] = target: plastidic-type ferredoxin reductase SelFdR0978 from Synechococcus elongatus PCC 7942 (Synechococcus elongatus PCC 7942); remark: listed apart in the source
[12] = target: T7, putidaredoxin reductase from Pseudomonas putida (Pseudomonas putida); remark: listed apart in the source
[13] = electron acceptor, 1 mM NADPH or NADH
[14] = electron donor at 1 mM, DCIP as acceptor

Molecule: CC[C@H](C)C(=O)O[C@H]1CCC=C2C=C[C@H](C)[C@H](CC[C@@H](O)C[C@@H](O)CC(=O)O)[C@H]21
HPLC/HRMS of products, reconstituted system [1]: P450sca-2 produced pravastatin as the main product in all positive reactions

Molecule: O=C1C(Cl)=CC(=Nc2ccc(O)cc2)C=C1Cl [DCIP]
DCIP reduction, absorbance at 600 nm [2, 13]: SelFdR0978 was more efficient in DCIP reduction than both AdR and PdR | DCIP reduction, absorbance at 600 nm [3, 13]: SelFdR0978 was more efficient in DCIP reduction than both AdR and PdR | DCIP reduction, absorbance at 600 nm [4, 13]: SelFdR0978 was more efficient in DCIP reduction than both AdR and PdR

Molecule: Cc1cc2nc3c(=O)[nH]c(=O)nc-3n(C[C@H](O)[C@H](O)[C@H](O)COP(=O)(O)OP(=O)(O)OC[C@H]3O[C@@H](n4cnc5c(N)ncnc54)[C@H](O)[C@@H]3O)c2cc1C [FAD]
FAD released by guanidinium chloride, absorbance at 450 nm [5]: extinction coefficients of the flavin-bound SelFdR0978

Molecule: NC(=O)C1=CN([C@@H]2O[C@H](COP(=O)(O)OP(=O)(O)OC[C@H]3O[C@@H](n4cnc5c(N)ncnc54)[C@H](O)[C@@H]3O)[C@@H](O)[C@H]2O)C=CC1 [NADH]
DCIP reduction, absorbance at 600 nm [4, 14]: PdR preferred NADH to NADPH

Molecule: NC(=O)C1=CN([C@@H]2O[C@H](COP(=O)(O)OP(=O)(O)OC[C@H]3O[C@@H](n4cnc5c(N)ncnc54)[C@H](OP(=O)(O)O)[C@@H]3O)[C@@H](O)[C@H]2O)C=CC1 [NADPH]
DCIP reduction, absorbance at 600 nm [2, 14]: AdR only exhibited a slightly increased activity with NADPH than with NADH | DCIP reduction, absorbance at 600 nm [3, 14]: SelFdR0978 showed a strong preference for NADPH over NADH

Molecule: C/C1=C/C[C@@H](/C(C)=C/c2csc(C)n2)OC(=O)C[C@H](O)C(C)(C)C(=O)[C@H](C)[C@@H](O)[C@@H](C)CCC1 [epothilone D]
conversion assay, reconstituted system [6]: EpoK catalyzes the epoxidation of C12-C13 double bond in epothilone D to form epothilone B

Km for the redoxin in cyt c reduction (NAD(P)H, 1 nM FdR, 0-40 uM Fdx, 30 uM cyt c) [7]: 14.6 µM | conversion rate of YC-17 by PikC (1 uM P450, 10 uM Fdx, 5 uM FdR), wild-type reference [8]: 15.6% | conversion rate of YC-17 by PikC (1 uM P450, 10 uM Fdx, 5 uM FdR), wild-type reference [9]: 63.8% | conversion rate of YC-17 by PikC (1 uM P450, 10 uM Fdx, 5 uM FdR), wild-type reference [10]: 16.5%
Molecule: Bovine adrenodoxin Adx(4-108) (domain or fragment)

Km for the redoxin in cyt c reduction (NAD(P)H, 1 nM FdR, 0-40 uM Fdx, 30 uM cyt c) [11]: 14.2 µM | conversion rate of YC-17 by PikC (1 uM P450, 10 uM Fdx, 5 uM FdR), wild-type reference [8]: 99.1% | conversion rate of YC-17 by PikC (1 uM P450, 10 uM Fdx, 5 uM FdR), wild-type reference [9]: 30.1% | conversion rate of YC-17 by PikC (1 uM P450, 10 uM Fdx, 5 uM FdR), wild-type reference [10]: 24.7%
Molecule: Fe2S2 ferredoxin SelFdx1499 from Synechococcus elongatus PCC 7942 (natural protein)

Km for the redoxin in cyt c reduction (NAD(P)H, 1 nM FdR, 0-40 uM Fdx, 30 uM cyt c) [12]: 22.1 µM | conversion rate of YC-17 by PikC (1 uM P450, 10 uM Fdx, 5 uM FdR), wild-type reference [8]: 0% | conversion rate of YC-17 by PikC (1 uM P450, 10 uM Fdx, 5 uM FdR), wild-type reference [9]: 0% | conversion rate of YC-17 by PikC (1 uM P450, 10 uM Fdx, 5 uM FdR), wild-type reference [10]: 15.6%
B1: putidaredoxin from Pseudomonas putida (natural protein)
chain: SKVVYVSHDGTRRELDVADGVSLMQAAVSNGIYDIVGDCGGSASCATCHVYVNEAFTDKVPAANEREIGMLECVTAELKPNSRLCCQIIMTPELDGIVVDVPDRQW

conversion rate of YC-17 by PikC (1 uM P450, 10 uM Fdx, 5 uM FdR) [8]: 9.2%
B2: Adx-M1 (domain or fragment)
chain: EDKITVHFINRDGETLTTKGKIGDALLDVVVQNNLDIDGFGACEGTLACSTCHLIFEQHIFEKLEAIADEEAAMLALAYGLTDRSRLGCQICLTKAMDNMTVRVP

conversion rate of YC-17 by PikC (1 uM P450, 10 uM Fdx, 5 uM FdR) [10]: 7.2%
B3: Adx-M3 (domain or fragment)
chain: B2 chain with A25S, D38A, G39A, A42L, A68T, A72N, A73D, A76D

conversion rate of YC-17 by PikC (1 uM P450, 10 uM Fdx, 5 uM FdR) [9]: 67.8%
B4: Adx-M2 (domain or fragment)
chain: B2 chain with A25S, D38A, E44A, L47A, A68T, A72N, A73D
